Measurements published in patent CN110294802A (INST MILITARY MEDICINE ACADEMY MILITARY SCIENCES PLA, dated 2019).

Legend:
[1] = target: HAdV7病毒原液 (human/CHN/GZ6965/2001); test: cell-based or functional assay
合成的口蹄疫病毒多肽抗原 = test: ELISA, antigen coated on plate, anti-human IgG-HRP detection

B1: 10G12抗体 (antibody, V domains shown)
VH: QVQLKQPGAELVRPGASVKLSCKASGYSFTNYWMHWMKQRPGQGLEWIGMIDPSDSETRLNQKFKDKATLTVDKSSSIAYMQLSSPTSEDSAVYYCARDRYDGGAWFDYWSQGTLVT
VL: DIVMTQTPLSLPVSLGDQASISCRSSQSLVHSNGNTYLHWYLQKPGQSPKLLIYKVSNRFSGVPDRFSVSGSGTDFTLKISRVEAEDLGVYFCSQSTHVPPTFGGGTKLEIK
notes: also called 单克隆抗体10G12
**Q.** B1 was tested. Which “抗体对腺病毒感染的抑制率 (EC50, CPE on A549 cells)” value [1] did it give?
**A.** 0.2 µg/mL

**Q.** Does B1 bind (合成的口蹄疫病毒多肽抗原)?
**A.** no binding (tested: 300μg/ml)
